Source: patent US20190018005A1

Key:
[1] = biological target: 3.3 antibody (an anti-PEG antibody, IgG type); assay: ELISA, biotin-3.3Ab 0.33 µg/mL on plate coated with poly-protein G, streptavidin-HRP, OD405
[2] = biological target: 3.3 antibody (an anti-PEG antibody, IgG type); assay: ELISA, biotin-3.3Ab 0.0371 µg/mL on plate coated with poly-protein G, streptavidin-HRP, OD405
[3] = biological target: 3.3 antibody (an anti-PEG antibody, IgG type); assay: ELISA, biotin-3.3Ab 0.11 µg/mL on plate coated with poly-protein G, streptavidin-HRP, OD405
[4] = biological target: 3.3 antibody (an anti-PEG antibody, IgG type); assay: ELISA, biotin-3.3Ab 0.0123 µg/mL on plate coated with poly-protein G, streptavidin-HRP, OD405
[5] = biological target: 3.3 antibody (an anti-PEG antibody, IgG type); assay: ELISA, biotin-3.3Ab 1 µg/mL on plate coated with poly-protein G, streptavidin-HRP, OD405

fold antibody amount loaded vs commercial protein G-based plate [1]: 1.3 times
fold antibody amount loaded vs traditional polystyrene-based plate [1]: 2.2 times
fold antibody amount loaded vs commercial protein G-based plate [2]: 5.8 times
fold antibody amount loaded vs traditional polystyrene-based plate [2]: 20 times
fold antibody amount loaded vs commercial protein G-based plate [3]: 4 times
fold antibody amount loaded vs traditional polystyrene-based plate [3]: 10 times
fold antibody amount loaded vs commercial protein G-based plate [4]: 7.8 times
fold antibody amount loaded vs traditional polystyrene-based plate [4]: 14 times
fold antibody amount loaded vs commercial protein G-based plate [5]: 1.15 times
fold antibody amount loaded vs traditional polystyrene-based plate [5]: 1.3 times
B1: poly-protein G (soluble; HA, eight repeats of C2 domain of protein G with linkers, six histidines) (protein, not shown: small tags and cut ends)
chain: TYKLVINGKTLKGETTTEAVDAATAEKVFKQYANDNGVDGEWTYDDATKTFTVTEGGGGSGGGGSVETYKLVINGKTLKGETTTEAVDAATAEKVFKQYANDNGVDGEWTYDDATKTFTVTEGGGGSGGGGSVETYKLVINGKTLKGETTTEAVDAATAEKVFKQYANDNGVDGEWTYDDATKTFTVTEGGGGSGGGGSVETYKLVINGKTLKGETTTEAVDAATAEKVFKQYANDNGVDGEWTYDDATKTFTVTEGGGGSGGGGSVETYKLVINGKTLKGETTTEAVDAATAEKVFKQYANDNGVDGEWTYDDATKTFTVTEGGGGSGGGGSVETYKLVINGKTLKGETTTEAVDAATAEKVFKQYANDNGVDGEWTYDDATKTFTVTEGGGGSGGGGSVETYKLVINGKTLKGETTTEAVDAATAEKVFKQYANDNGVDGEWTYDDATKTFTVTEGGGGSGGGGSVETYKLVINGKTLKGETTTEAVDAATAEKVFKQYANDNGVDGEWTYDDATKTFTVTEGGGGSGGGGSVHHHHHH
